We go through 39 sequences from the supplement of paper PMC7877785.

This series can be described thus: self-splicing fitness, log relative to wild type (ln ratio); higher = more splicing; Tetrahymena group I intron in knt gene, E. coli kanamycin selection, DiMSum; sequences stand for … in CUCUCU…GGAGGGAAAAGUUAUCAGGCAUGCACCUGGUAGCUAGUCUUUAAACCAAUAGAUUGCAUCGGUUUAAAAGGCAAGACCGUCAAAUUGCGGGAAAGGGGUCAACAGCCGUUCAGUACCAAGUCUCAGGGGAAACUUUGAGAUGGCCUUGCAAAGGGUAUGGUAAUAAGCUGACGGACAUGGUCCUAACCACGCAGCCAAGUCCUAAGUCAACAGAUCUUCUGUUGAUAUGGAUGCAGUUCACAGACUAAAUGUCGGUCGGGGAAGAUGUAUUCUUCUCAUAAGAUAUAGUCGGACCUCUCCUUAAUGGGAGCUAGCGGAUGAAGUGAUGCAACACUGGAGCCGCUGGGAACUAAUUUGUAUGCGAAAGUAUAUUGAUUAGUUUUGGAGUACUCGUGGUCG
The method, boiled down:
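Six replicate transformations of E. coli BL21(DE3) with a pET-22b(+) library were grown overnight at 37°C or 30°C. The library randomised all eight P1ex-region intron nucleotides, the intron lying in the knt kanamycin-resistance gene, and plates were LB agar with or without 25 μg/mL kanamycin plus 100 μg/mL carbenicillin, 50 μM IPTG and 0.2% rhamnose. Pooled colonies were amplicon-sequenced on an Illumina HiSeq 2500, and fitness is the DiMSum error-weighted combination of wild-type-normalised replicate fold changes, kanamycin versus none.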

± gives the uncertainty stated by the source.

As for GGGAAGCAAUAUUACGUCAU, the “self-splicing fitness (ln)” value was -1.42 ± 0.11 (30 °C) and -0.7 ± 0.13 (37 °C).

Take GGGAAGCAAUAUUACGUCCA: the “self-splicing fitness (ln)” value (30 °C) came to 0.145 ± 0.14 and the “self-splicing fitness (ln)” value (37 °C) is 0.69 ± 0.16.

As to GGGAAGCAAUAUUACGUCGC, the “self-splicing fitness (ln)” value runs as follows: (30 °C) -1.83 ± 0.16; (37 °C) -0.302 ± 0.17.

For the sequence GGGAAGCAAUAUUACGUGCU, the “self-splicing fitness (ln)” value is -1.69 ± 0.12 (30 °C) and -0.273 ± 0.11 (37 °C).

Turning to GGGAAGCAAUAUUACGUUCG, the “self-splicing fitness (ln)” value (30 °C) is -0.436 ± 0.11 and the “self-splicing fitness (ln)” value (37 °C) stood at 0.00472 ± 0.17.

Take GGGAAGCAAUAUUACGUUUU: the “self-splicing fitness (ln)” value reads like this: (30 °C) -2.68 ± 0.23; (37 °C) -1.62 ± 0.25.

GGGCAGCAAUAUUACGAAGG: the “self-splicing fitness (ln)” value is -3.32 ± 0.27 (30 °C) and -2.45 ± 0.35 (37 °C).

Turning to GGGCAGCAAUAUUACGACGU, the “self-splicing fitness (ln)” value runs as follows: (30 °C) -0.265 ± 0.1; (37 °C) 0.553 ± 0.12.

Turning to GGGCAGCAAUAUUACGACUG, the “self-splicing fitness (ln)” value runs as follows: (30 °C) -2.84 ± 0.2; (37 °C) -0.716 ± 0.27.

For the sequence GGGCAGCAAUAUUACGAGAC, the “self-splicing fitness (ln)” value by setting is: (30 °C) -3.12 ± 0.26; (37 °C) -1.74 ± 0.19.

As for GGGCAGCAAUAUUACGAGGG, the “self-splicing fitness (ln)” value by setting is: (30 °C) -3.93 ± 0.34; (37 °C) -2.39 ± 0.24.

In the case of GGGCAGCAAUAUUACGAUAC, the “self-splicing fitness (ln)” value is -1.1 ± 0.11 (30 °C) and 0.201 ± 0.12 (37 °C).

Take GGGCAGCAAUAUUACGAUUC: the “self-splicing fitness (ln)” value is, setting by setting: (30 °C) -0.524 ± 0.17; (37 °C) 0.155 ± 0.15.

Take GGGCAGCAAUAUUACGCCGG: the “self-splicing fitness (ln)” value is -1.51 ± 0.11 (30 °C) and 0.118 ± 0.14 (37 °C).

Regarding GGGCAGCAAUAUUACGCCGU, the “self-splicing fitness (ln)” value is -2.84 ± 0.21 (30 °C) and -1.01 ± 0.15 (37 °C).

Consider GGGCAGCAAUAUUACGCGCU, for which the “self-splicing fitness (ln)” value is -2.33 ± 0.19 (30 °C) and -1.44 ± 0.35 (37 °C).

GGGCAGCAAUAUUACGGAUG: the “self-splicing fitness (ln)” value is, setting by setting: (30 °C) -3.41 ± 0.26; (37 °C) -2.81 ± 0.34.

With GGGCAGCAAUAUUACGGGGU, for the setting “37 °C”, the “self-splicing fitness (ln)” value was -2.84 ± 0.34.

Regarding GGGCAGCAAUAUUACGGGUC, the “self-splicing fitness (ln)” value was -2.9 ± 0.25 (30 °C) and -2.02 ± 0.23 (37 °C).

Turning to GGGCAGCAAUAUUACGUCAA, the “self-splicing fitness (ln)” value runs as follows: (30 °C) 0.3 ± 0.08; (37 °C) 0.285 ± 0.088.

GGGCAGCAAUAUUACGUCUC: the “self-splicing fitness (ln)” value (30 °C) is -2.15 ± 0.23 and the “self-splicing fitness (ln)” value (37 °C) is -1.41 ± 0.15.

As for GGGCAGCAAUAUUACGUCUG, the “self-splicing fitness (ln)” value (30 °C) was -1.11 ± 0.22 and the “self-splicing fitness (ln)” value (37 °C) was -1.04 ± 0.16.

Consider GGGCAGCAAUAUUACGUGAA, for which the “self-splicing fitness (ln)” value is -0.864 ± 0.079 (30 °C) and -0.507 ± 0.083 (37 °C).

On to GGGCAGCAAUAUUACGUGUC, for which the “self-splicing fitness (ln)” value is -3.82 ± 0.17 (30 °C) and -2.53 ± 0.2 (37 °C).

For GGGGAGCAAUAUUACGAUGU, the “self-splicing fitness (ln)” value is -1.64 ± 0.25 (30 °C) and -1.55 ± 0.35 (37 °C).

In the case of GGGGAGCAAUAUUACGCAAU, the “self-splicing fitness (ln)” value (37 °C) is -1.66 ± 0.48.

Turning to GGGGAGCAAUAUUACGCCAC, the “self-splicing fitness (ln)” value is -3.28 ± 0.27 (30 °C) and -3.39 ± 0.39 (37 °C).

Consider GGGGAGCAAUAUUACGCGCA, for which the “self-splicing fitness (ln)” value was -2.35 ± 0.22 (30 °C) and -1.32 ± 0.25 (37 °C).

In the case of GGGGAGCAAUAUUACGGCUA, the “self-splicing fitness (ln)” value (30 °C) is -0.686 ± 0.18 and the “self-splicing fitness (ln)” value (37 °C) is -0.291 ± 0.17.

Consider GGGGAGCAAUAUUACGGGAA, for which, where the note is “37 °C”, the “self-splicing fitness (ln)” value is -1.38 ± 0.49.

GGGGAGCAAUAUUACGGGUA: the “self-splicing fitness (ln)” value was -2.64 ± 0.26 (30 °C) and -2.25 ± 0.34 (37 °C).

Regarding GGGGAGCAAUAUUACGGUAA, the “self-splicing fitness (ln)” value (30 °C) was -2.05 ± 0.28 and the “self-splicing fitness (ln)” value (37 °C) was -2.82 ± 0.3.

Regarding GGGGAGCAAUAUUACGGUCA, where the note is “37 °C”, the “self-splicing fitness (ln)” value was -0.676 ± 0.18.

In the case of GGGGAGCAAUAUUACGUAAC, the “self-splicing fitness (ln)” value is -2.06 ± 0.46 (30 °C) and -0.204 ± 0.39 (37 °C).

GGGGAGCAAUAUUACGUAGA: the “self-splicing fitness (ln)” value (30 °C) was -2.43 ± 0.31 and the “self-splicing fitness (ln)” value (37 °C) is -1.7 ± 0.4.

For the sequence GGGGAGCAAUAUUACGUCAU, for the setting “37 °C”, the “self-splicing fitness (ln)” value was -2.07 ± 0.39.

On to GGGGAGCAAUAUUACGUUAG, for which the “self-splicing fitness (ln)” value runs as follows: (30 °C) -3.73 ± 0.43; (37 °C) -0.485 ± 0.33.

GGGUAGCAAUAUUACGAGGC: the “self-splicing fitness (ln)” value reads like this: (30 °C) -3.89 ± 0.47; (37 °C) -2.19 ± 0.25.

For GGGUAGCAAUAUUACGCUGA, the “self-splicing fitness (ln)” value is, setting by setting: (30 °C) -2.05 ± 0.15; (37 °C) 0.00831 ± 0.17.
